The source of these data is US20250277030A1, “ANTI-NAPI2B ANTIBODIES AND METHODS OF USE” (Zymeworks BC Inc., priority 2022, published 2025).

Data set [1] in a line: Thermal stability by differential scanning calorimetry (DSC). In kind it is physicochemical. The note with it: 0.4 mg/mL in PBS, scan 20° C. to 100° C. at 60° C./hr. Here is the method:
The thermal stability of the humanized antibody variants was assessed by differential scanning calorimetry (DSC) as described below.
400 μL of purified samples primarily at concentrations of 0.4 mg/mL in PBS were used for DSC analysis with a VP-Capillary DSC (Malvern Panalytical Inc., Westborough, MA). At the start of each DSC run, 5 buffer blank injections were performed to stabilize the baseline, and a buffer injection was placed before each sample injection for referencing. Each sample was scanned from 20° C. to 100° C. at a 60° C./hr rate, with low feedback, 8 sec filter, 3 min pre-scan thermostat, and 70 psi nitrogen pressure. The resulting thermograms were referenced and analyzed using Origin 7 software (OriginLab Corporation, Northampton, MA) to determine melting temperature (Tm) as an indicator of thermal stability.
Background: Differential scanning calorimetry records heat flow against a reference as temperature is scanned.

Data set [2] deals with cynomolgus NaPi2b. The experiment in a line: Flow cytometry binding to HEK293-6e cells transfected with cynomolgus NaPi2b (Example 5). The note with it: transfected HEK293-6e cells. Here is the method: (§1) The binding cross-reactivity of humanized antibody variant v29456 to human, cynomolgus and mouse NaPi2b was assessed by flow cytometry using HEK293-6e transfected cells.
(§2) Briefly, HEK293-6e cells were transfected for ˜24 hours to transiently express human NaPi2b, cynomolgus or mouse NaPi2b, at 1 μg of DNA per 1 million cells. Following transfection, 50,000 cells per well were seeded in V-bottom 96-well plates and incubated with 200 nM of primary antibody for 18-24 hours at 4° C. to prevent internalization. Post-incubation, cells were washed and stained with anti-Human IgG Fc AF647 conjugate (Jackson Immuno Research Labs, West Grove, PA, Cat. No. 109-605-098, Lot. No. 124868) at 4° C. for 1 hour. Following staining and washing, fluorescence was detected by flow cytometry on BD LSRFortessa™ Cell Analyzer (BD Biosciences, Franklin Lake, NJ) with 10,000 minimum events collected per well. The AF647/APC-A GeoMean (fluorescence signal geometric mean, proportional to anti-Human AF647 binding) was calculated for the live singlet cell population for each primary antibody using FlowJo™ v8 software (BD Biosciences, Franklin Lake, NJ). The Bmax and Kd of each primary antibody were calculated using GraphPad Prism Version 9 (GraphPad Software, San Diego, CA)
In general terms: A flow cytometer gives signals particle by particle.

Data set [3] concerns the target T1, human NaPi2b (Homo sapiens, UniProt O95436).
T1 construct: host or cells: HEK293-6e
T1 sequence (O95436 1-690): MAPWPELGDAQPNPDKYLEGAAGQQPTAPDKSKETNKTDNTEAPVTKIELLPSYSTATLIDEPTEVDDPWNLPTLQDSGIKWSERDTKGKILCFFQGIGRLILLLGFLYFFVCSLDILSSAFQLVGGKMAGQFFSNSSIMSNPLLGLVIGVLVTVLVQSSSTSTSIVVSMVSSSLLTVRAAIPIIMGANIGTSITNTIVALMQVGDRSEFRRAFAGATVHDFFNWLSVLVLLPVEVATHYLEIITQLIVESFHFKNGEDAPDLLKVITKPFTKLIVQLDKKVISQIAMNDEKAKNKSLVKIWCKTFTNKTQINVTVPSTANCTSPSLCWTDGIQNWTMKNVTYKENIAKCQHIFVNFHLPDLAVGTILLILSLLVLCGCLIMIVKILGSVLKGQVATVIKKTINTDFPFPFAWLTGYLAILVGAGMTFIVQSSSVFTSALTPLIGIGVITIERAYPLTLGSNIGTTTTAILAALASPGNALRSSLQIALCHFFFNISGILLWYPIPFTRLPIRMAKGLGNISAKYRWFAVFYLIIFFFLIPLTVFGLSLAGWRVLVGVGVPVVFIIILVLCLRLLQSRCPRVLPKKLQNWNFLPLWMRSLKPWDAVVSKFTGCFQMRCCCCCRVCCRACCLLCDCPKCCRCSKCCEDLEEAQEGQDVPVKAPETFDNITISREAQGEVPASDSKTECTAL
Nature of the data set: Flow cytometry binding to HEK293-6e cells transfected with human NaPi2b (Example 5). The note with it: transfected HEK293-6e cells, 18-24 hours at 4° C. The method, then:
as §1, §2

Chain of cynomolgus NaPi2b (as listed by the source): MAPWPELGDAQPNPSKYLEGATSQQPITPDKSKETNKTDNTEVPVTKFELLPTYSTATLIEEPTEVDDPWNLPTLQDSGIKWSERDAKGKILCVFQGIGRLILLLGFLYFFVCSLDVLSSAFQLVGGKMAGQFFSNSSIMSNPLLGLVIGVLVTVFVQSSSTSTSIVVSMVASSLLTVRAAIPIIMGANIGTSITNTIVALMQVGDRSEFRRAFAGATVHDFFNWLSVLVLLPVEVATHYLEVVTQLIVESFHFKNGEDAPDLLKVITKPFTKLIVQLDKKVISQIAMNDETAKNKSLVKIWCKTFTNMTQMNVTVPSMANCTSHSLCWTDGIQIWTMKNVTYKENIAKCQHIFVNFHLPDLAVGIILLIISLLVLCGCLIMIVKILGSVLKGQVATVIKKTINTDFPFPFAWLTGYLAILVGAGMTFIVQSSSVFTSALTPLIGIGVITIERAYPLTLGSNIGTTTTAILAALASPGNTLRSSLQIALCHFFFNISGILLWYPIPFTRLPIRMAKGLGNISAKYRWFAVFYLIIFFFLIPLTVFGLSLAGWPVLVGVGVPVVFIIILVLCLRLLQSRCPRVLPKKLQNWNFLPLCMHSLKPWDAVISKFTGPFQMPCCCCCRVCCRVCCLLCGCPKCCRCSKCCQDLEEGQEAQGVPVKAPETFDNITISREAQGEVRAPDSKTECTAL

B1: v29456: humanized anti-NaPi2b IgG1/kappa antibody H1L2; VH SEQ ID NO:24, VL SEQ ID NO:29 (antibody, V domains shown)
VH: QVQLVQSGAEVKKPGASVKVSCKASGFTFTSYNVHWVRQAPGQGLEWMGAISPGNGDLSYAQKFQGRVTMTRDTSTSTVYMELSSLRSEDTAVYYCARGRTGMGAVDYWGQGTLVTVSS
VL: DVQMTQSPSSLSASVGDRVTITCRASQDVYSYLNWYQQKPGKAVKLLIYYTSRLQSGVPSRFSGSGSGTDYTLTISSLQPEDFATYYCQQYNIFPWTFGQGTKLEIK
modifications: v29452, v29456, v29460 VH (H1); v29453, v29454, v29455, v29456 VL (L2)
Regarding B1, in data set [1], the “Fab Tm” value is 77.9 °C. For the same molecule, in data set [2], the “apparent Kd on cynomolgus NaPi2b, fold lower than v18992 (MX35)” value amounted to 10 fold. The “Bmax (APC-A GeoMean), Cyno NaPi2b” value in data set [2] (18-24 hours at 4° C.) is 2,006 APC-A GeoMean. The Kd was found to be 3.2 nM in data set [2] (18-24 hours at 4° C., highest antibody concentration 200 nM, read-out: Apparent Kd (nM), Cyno NaPi2b) and 5.2 nM in data set [3] (highest antibody concentration 200 nM, read-out: Apparent Kd (nM), Hu NaPi2b). Further, in data set [3], the “Bmax (APC-A GeoMean), Hu NaPi2b” value is on record as 2,538 APC-A GeoMean.
